From patent US20240158497A1 (published 2024)
Blank lines part the entries; values can stand above or below the binder they belong to.

Columns and labels:
[1] = target: T1, human GP130 extracellular domain expressed with a C-terminal myc-myc-hexahistidine tag (human, UniProt P40189 23-619); test: SPR, bsAb captured by anti-hFc, 37C
T1 construct: also called hGP130-MMH; hGP130-mmH
Outline: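 Anti-hFc-captured bispecific antibodies received 3-fold serial dilutions of LEPR or GP130 (100 nM–3.7 nM) in HBS-ET, pH 7.4, injected for 4 min with 10 min dissociation at 25 °C or 37 °C. ka and kd came from a 1:1 binding model with mass transport limitation, and KD and t½ were calculated from these rate constants.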

[2] = target: T2, full length human GP130 (L2V natural variant) on HEK293/Stat3-luc/gp130-2X Sort cells (human, UniProt P40189 23-918); test: FACS, 200 nM antibody on HEK293/gp130 2X Sort cells
T2 construct: whole, on cells; Stably over-expressed on HEK293 cells, sorted twice for high expression; also called HEK293/gp130 2X Sort
T2 sequence (looked up): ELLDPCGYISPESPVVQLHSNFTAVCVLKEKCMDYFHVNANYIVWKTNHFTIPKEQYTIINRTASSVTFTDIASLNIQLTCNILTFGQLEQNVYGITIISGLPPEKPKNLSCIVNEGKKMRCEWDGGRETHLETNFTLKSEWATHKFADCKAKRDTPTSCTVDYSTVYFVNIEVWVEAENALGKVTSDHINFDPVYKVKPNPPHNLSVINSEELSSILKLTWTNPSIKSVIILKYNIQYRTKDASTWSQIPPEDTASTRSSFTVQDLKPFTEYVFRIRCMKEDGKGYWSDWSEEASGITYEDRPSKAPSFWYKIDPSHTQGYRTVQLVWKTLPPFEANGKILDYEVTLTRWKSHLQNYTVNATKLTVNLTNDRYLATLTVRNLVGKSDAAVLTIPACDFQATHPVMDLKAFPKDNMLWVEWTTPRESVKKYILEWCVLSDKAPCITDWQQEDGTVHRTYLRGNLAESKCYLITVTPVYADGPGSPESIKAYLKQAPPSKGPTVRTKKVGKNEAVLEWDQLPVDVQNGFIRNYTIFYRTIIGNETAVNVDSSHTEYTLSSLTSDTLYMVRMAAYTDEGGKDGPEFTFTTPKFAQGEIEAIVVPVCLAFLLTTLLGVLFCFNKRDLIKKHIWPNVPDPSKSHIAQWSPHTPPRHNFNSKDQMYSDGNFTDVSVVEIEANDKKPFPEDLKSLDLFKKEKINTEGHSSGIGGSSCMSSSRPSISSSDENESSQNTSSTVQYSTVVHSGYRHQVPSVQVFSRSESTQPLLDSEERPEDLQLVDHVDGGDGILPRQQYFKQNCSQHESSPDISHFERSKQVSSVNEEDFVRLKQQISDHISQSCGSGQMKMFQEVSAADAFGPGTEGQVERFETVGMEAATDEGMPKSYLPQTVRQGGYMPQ
Description: (§1) For the FACS analysis, 0.5×10^6 cells/well of HEK293 parental cells, HEK293/Stat3-luc/gp130-2 X Sort cells, and HEK293/hLEPR-GPI cells, were incubated with 200 nM of the conventional antibodies against either GP130 or LEPR or with LEPRxGP130 bispecific antibodies, along with isotype control antibodies at 4° C. in PBS (without calcium and magnesium) containing 2% FBS.
(§2) Cells were fixed using BD CytoFix™ (Becton Dickinson, #554655) and analyzed on an IQue® (Intellicyt) Flow Cytometer. Unstained and secondary antibody alone controls were also tested for all cell lines. The results were analyzed using ForeCyt® (IntelliCyt) and FlowJo version 10 softwares to determine the geometric means of fluorescence for viable cells.

[3] = target: T3, extracellular domain of human LEPR, GPI-anchored, on HEK293/hLEPR-GPI cells (human, UniProt P48357 22-839, GPI anchor at the C-terminus ; GPI anchor at the C-terminus, added through the carboxypeptidase M signal peptide. The N-terminal myc-myc tag is not written.); test: FACS, 200 nM antibody on HEK293/hLEPR-GPI cells, no Leptin
T3 sequence: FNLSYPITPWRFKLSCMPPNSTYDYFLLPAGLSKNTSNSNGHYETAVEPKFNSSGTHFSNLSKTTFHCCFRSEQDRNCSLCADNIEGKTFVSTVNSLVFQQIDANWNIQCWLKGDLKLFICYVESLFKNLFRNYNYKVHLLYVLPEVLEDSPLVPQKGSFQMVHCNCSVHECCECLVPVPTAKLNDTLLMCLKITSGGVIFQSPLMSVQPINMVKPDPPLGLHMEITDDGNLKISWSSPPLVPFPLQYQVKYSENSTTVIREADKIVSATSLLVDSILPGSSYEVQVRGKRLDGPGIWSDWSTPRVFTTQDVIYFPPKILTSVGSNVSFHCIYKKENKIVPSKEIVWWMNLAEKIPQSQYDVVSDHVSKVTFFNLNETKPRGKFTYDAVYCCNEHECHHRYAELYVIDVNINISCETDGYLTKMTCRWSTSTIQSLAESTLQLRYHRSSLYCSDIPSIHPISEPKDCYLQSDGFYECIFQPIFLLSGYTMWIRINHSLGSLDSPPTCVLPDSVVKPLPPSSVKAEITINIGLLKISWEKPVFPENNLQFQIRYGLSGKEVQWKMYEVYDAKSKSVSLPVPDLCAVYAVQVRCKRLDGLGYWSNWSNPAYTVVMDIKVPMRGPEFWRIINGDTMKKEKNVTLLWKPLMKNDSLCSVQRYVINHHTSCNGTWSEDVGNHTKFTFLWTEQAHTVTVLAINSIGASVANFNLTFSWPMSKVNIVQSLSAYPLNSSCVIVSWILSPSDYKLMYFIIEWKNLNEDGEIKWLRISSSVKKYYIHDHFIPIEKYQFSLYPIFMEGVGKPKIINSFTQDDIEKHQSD
Description: as §1, §2

100 nM hGP130-MMH Bound (RU) [1]: 12 RU | Kd [1]: 248 nM | koff [1]: 0.0148 s⁻¹ | kon [1]: 59700 M⁻¹ s⁻¹ | t½ [1]: 0.8 min | Binding Ratio, normalized to unstained sample (FL4-A) [2]: 132 fold | Binding Ratio, normalized to unstained sample (FL4-A) [3]: 4420 fold
B1: bsAb21236D (bispecific antibody, V domains shown)
VH 1: QVQLQESGPGLVKPSQTLSLTCTVSGGSISSGGDYWSWIRQLPGKGLEWIGYIYYSGSAYYNPSLKSRGTISIDTSKNQFSLKLTSVTAADTAVYFCVKLRFLEWFLGGWFGPWGQGTLVTVSS
VH 2: QVQLVESGGGLVKPGGSLRLSCAASGFTFSDYYMTWIRQTPGKGLDWVSYISSSGTNKYNADSVKGRFTISRDNAKNSLYLQMNSLRAEDTAVYYCVRDPPWGMDVWGQGTTVTVSS
VL: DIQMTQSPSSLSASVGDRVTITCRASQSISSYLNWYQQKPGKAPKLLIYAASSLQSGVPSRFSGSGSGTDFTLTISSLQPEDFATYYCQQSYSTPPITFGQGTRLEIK
notes: LEPR x GP130 bispecific with common light chain; also called H4H21236D; bsAb21236 (LEPR × GP130)

100 nM hGP130-MMH Bound (RU) [1]: 19 RU | Kd [1]: 144 nM | koff [1]: 0.00879 s⁻¹ | kon [1]: 61100 M⁻¹ s⁻¹ | t½ [1]: 1.3 min | Binding Ratio, normalized to unstained sample (FL4-A) [2]: 169 fold | Binding Ratio, normalized to unstained sample (FL4-A) [3]: 6320 fold
B2: bsAb21237D (bispecific antibody, V domains shown)
VH 1: EVQLVESGGGLVQPGGSLRLSCAASGFTFSNYGMTWVRQAPGKGLEWVSAITGGGGSTYYSNSVKGRFTISRDNSKNTVYLRMNSVRAEDTAVYYCAKYKWNFVDDWGQGTTVTVSS
VH 2: B1 VH 2
VL: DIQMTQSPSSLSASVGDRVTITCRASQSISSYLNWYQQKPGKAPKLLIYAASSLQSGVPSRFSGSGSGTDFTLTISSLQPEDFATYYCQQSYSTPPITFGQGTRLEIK
notes: LEPR x GP130 bispecific with common light chain; also called H4H21237D; bsAb21237 (LEPR × GP130)
